Experimental data taken from the supplement of paper PMC5998384.

Legend:
HeLa Kyoto [1] = assay: solubility in G1/S (NP-40 vs SDS abundance) (log2 ratio); higher = more soluble; details: cell cycle stage: G1/S
HeLa Kyoto [2] = assay: melting temperature (median over replicates), in situ; higher = more thermally stable
HeLa Kyoto [3] = assay: solubility change mitosis vs G1/S (difference of NP-40 vs SDS log2 ratios) (log2 ratio difference); higher = more soluble in mitosis
HeLa Kyoto [4] = assay: thermal stability score vs G1/S (z-score of summed log2 fold changes over temperatures); higher = more thermally stable than in G1/S
[5] = cell cycle stage: early G1 (4.5 h after nocodazole release)
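Wherever melting temperature (median over replicates), in situ is given: HeLa Kyoto cells synchronized by double thymidine or nocodazole block, proteins quantified by TMT10plex mass spectrometry, three independent biological replicates.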
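Wherever solubility change mitosis vs G1/S (difference of NP-40 vs SDS log2 ratios) is given: synchronized HeLa Kyoto cells (double thymidine block for G1/S, nocodazole release for mitosis), protein amounts in NP-40 versus SDS lysates quantified by mass spectrometry, three biological replicates.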
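Wherever solubility in G1/S (NP-40 vs SDS abundance) is given: HeLa Kyoto cells arrested at G1/S by double thymidine block, proteins quantified by TMT10plex mass spectrometry in mild NP-40 versus SDS extracts, three biological replicates.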
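Wherever thermal stability score vs G1/S (z-score of summed log2 fold changes over temperatures) is given: synchronized HeLa Kyoto cells, proteins quantified by TMT10plex mass spectrometry, three biological replicates, mitosis taken 0.5 h after nocodazole release, G1/S directly after double thymidine block.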

Row | Sequence | solubility in G1/S (log2) (HeLa Kyoto [1]) | melting temperature (HeLa Kyoto [2]; cell cycle stage: G1/S) [°C] | solubility change mitosis (log2) (HeLa Kyoto [3]) | thermal stability score (HeLa Kyoto [4]; [5]) | thermal stability score (HeLa Kyoto [4]; cell cycle stage: mitosis) | melting temperature (HeLa Kyoto [2]; cell cycle stage: mitosis) [°C]
1 | MAQRMTTQLLLLLVWVAVVGEAQTRIAWARTELLNVCMNAKHHKEKPGPEDKLHEQCRPWRKNACCSTNTSQEAHKDVSYLYRFNWNHCGEMAPACKRHFIQDTCLYECSPNLGPWIQQVDQSWRKERVLNVPLCKEDCEQWWEDCRTSYTCKSNWHKGWNWTSGFNKCAVGAACQPFHFYFPTPTVLCNEIWTHSYKVSNYSRGSGRCIQMWFDPAQGNPNEEVARFYAAAMSGAGPWAAWPFLLSLALMLLWLLS [FOLR1] | -0.325 | 58.8 | 0.0281 | -1.06 | -1.43 | –
2 | MESSSSSNSYFSVGPTSPSAVVLLYSKELKKWDEFEDILEERRHVSDLKFAMKCYTPLVYKGITPCKPIDIKCSVLNSEEIHYVIKQLSKESLQSVDVLREEVSEILDEMSHKLRLGAIRFCAFTLSKVFKQIFSKVCVNEEGIQKLQRAIQEHPVVLLPSHRSYIDFLMLSFLLYNYDLPVPVIAAGMDFLGMKMVGELLRMSGAFFMRRTFGGNKLYWAVFSEYVKTMLRNGYAPVEFFLEGTRSRSAKTLTPKFGLLNIVMEPFFKREVFDTYLVPISISYDKILEETLYVYELLGVPKPKESTTGLLKARKILSENFGSIHVYFGDPVSLRSLAAGRMSRSSYNLVPRYIPQKQSEDMHAFVTEVAYKMELLQIENMVLSPWTLIVAVLLQNRPSMDFDALVEKTLWLKGLTQAFGGFLIWPDNKPAEEVVPASILLHSNIASLVKDQVILKVDSGDSEVVDGLMLQHITLLMCSAYRNQLLNIFVRPSLVAVALQMTPGFRKEDVYSCFRFLRDVFADEFIFLPGNTLKDFEEGCYLLCKSEAIQVTTKDILVTEKGNTVLEFLVGLFKPFVESYQIICKYLLSEEEDHFSEEQYLAAVRKFTSQLLDQGTSQCYDVLSSDVQKNALAACVRLGVVEKKKINNNCIFNVNEPATTKLEEMLGCKTPIGKPATAKL [GNPAT] | -0.227 | 53.4 | -0.163 | -0.31 | -0.298 | 53.7
3 | MDGKQGGMDGSKPAGPRDFPGIRLLSNPLMGDAVSDWSPMHEAAIHGHQLSLRNLISQGWAVNIITADHVSPLHEACLGGHLSCVKILLKHGAQVNGVTADWHTPLFNACVSGSWDCVNLLLQHGASVQPESDLASPIHEAARRGHVECVNSLIAYGGNIDHKISHLGTPLYLACENQQRACVKKLLESGADVNQGKGQDSPLHAVARTASEELACLLMDFGADTQAKNAEGKRPVELVPPESPLAQLFLEREGPPSLMQLCRLRIRKCFGIQQHHKITKLVLPEDLKQFLLHL [ASB9] | 0.762 | 55 | -0.182 | -0.645 | -1.33 | 54.2
4 | MAWALKLPLADEVIESGLVQDFDASLSGIGQELGAGAYSMSDVLALPIFKQEESSLPPDNENKILPFQYVLCAATSPAVKLHDETLTYLNQGQSYEIRMLDNRKLGELPEINGKLVKSIFRVVFHDRRLQYTEHQQLEGWRWNRPGDRILDIDIPMSVGIIDPRANPTQLNTVEFLWDPAKRTSVFIQVHCISTEFTMRKHGGEKGVPFRVQIDTFKENENGEYTEHLHSASCQIKVFKPKGADRKQKTDREKMEKRTPHEKEKYQPSYETTILTECSPWPEITYVNNSPSPGFNSSHSSFSLGEGNGSPNHQPEPPPPVTDNLLPTTTPQEAQQWLHRNRFSTFTRLFTNFSGADLLKLTRDDVIQICGPADGIRLFNALKGRMVRPRLTIYVCQESLQLREQQQQQQQQQQKHEDGDSNGTFFVYHAIYLEELTAVELTEKIAQLFSISPCQISQIYKQGPTGIHVLISDEMIQNFQEEACFILDTMKAETNDSYHIILK [TFCP2] | -0.0776 | 48.2 | -0.0306 | 0.94 | 2.72 | 48.6
